Measured values published in US20160251404A1 (Molecular Partners, published 2016).
Substitutions are numbered along the chain they refer to. Read-outs that look alike come from different tables or passages of the source. Values belong to the binder of their own block, whether it stands above or below them.

What was measured:
[1] = target: T1, recombinant human HGF (hepatocyte growth factor) (human, UniProt P14210 32-728); assay: SPR (ProteOn), human HGF immobilized on GLC chip, DARPin injected, PBS 0.005% Tween 20
T1 construct: Covalently immobilized on the chip for SPR; also called scatter factor
T1 sequence (P14210 32-728 limits assumed): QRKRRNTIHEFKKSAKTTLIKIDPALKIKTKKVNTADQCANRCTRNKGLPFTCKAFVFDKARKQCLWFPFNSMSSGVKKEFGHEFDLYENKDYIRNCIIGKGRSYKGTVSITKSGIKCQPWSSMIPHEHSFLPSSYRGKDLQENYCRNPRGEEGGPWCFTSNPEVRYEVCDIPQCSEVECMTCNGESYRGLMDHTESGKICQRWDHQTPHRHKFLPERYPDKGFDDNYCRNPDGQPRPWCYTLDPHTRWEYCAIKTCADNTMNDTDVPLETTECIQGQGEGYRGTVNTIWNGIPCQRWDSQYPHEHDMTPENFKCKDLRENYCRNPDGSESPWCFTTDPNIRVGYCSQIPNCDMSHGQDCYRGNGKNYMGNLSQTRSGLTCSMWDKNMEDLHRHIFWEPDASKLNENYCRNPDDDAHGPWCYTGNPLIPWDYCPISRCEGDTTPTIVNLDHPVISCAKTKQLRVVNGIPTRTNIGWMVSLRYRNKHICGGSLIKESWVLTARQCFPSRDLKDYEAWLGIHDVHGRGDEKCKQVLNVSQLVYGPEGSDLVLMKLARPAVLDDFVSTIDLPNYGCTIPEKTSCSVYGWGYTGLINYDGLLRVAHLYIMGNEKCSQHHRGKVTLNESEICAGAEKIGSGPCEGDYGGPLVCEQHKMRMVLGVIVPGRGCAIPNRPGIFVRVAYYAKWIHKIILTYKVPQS
Experimental: SPR was measured using a ProteOn instrument (BioRad) and measurement was performed according standard procedures known to the person skilled in the art. The running buffer was PBS, pH 7.4, containing 0.005% Tween 20®. Human HGF was covalently immobilized on a GLC chip (BioRad) to a level of about 5000 resonance units (RU). The interaction of DARPin and HGF was then measured by injecting 200 μl running buffer (PBS containing 0.005% Tween®) containing serial dilutions of DARPins of concentration of […] (on-rate measurement), followed by a running buffer flow for 25 minutes at a constant flow rate of 100 μl/min (off-rate measurement). The signals (i.e. resonance unit (RU) values) of the interspots and a reference injection (i.e. injection of running buffer only) were subtracted from the RU traces obtained after injection of DARPin (double-referencing). From the SPR traces obtained from the on-rate and off-rate measurements the on- and off-rate of the corresponding DARPin HGF interaction can be determined. […] Dissociation constants (Kd) were calculated from the estimated on- and off-rates using standard procedures known to the person skilled in the art. […] As an example, Table 1 summarizes the Kd values for some of the selected DARPins.

[2] = target: T1, recombinant human HGF (hepatocyte …); assay: cell-based or functional assay
[3] = target: T1, recombinant human HGF (hepatocyte …); assay: cell-based or functional assay; remark: listed apart in the source
[4] = target: T1, recombinant human HGF (hepatocyte …); assay: receptor competition ELISA: DARPin premixed with human HGF, binding of HGF to coated c-Met Fc chimera detected with anti-HGF antibody
Experimental: The potency of anti-HGF DARPins to inhibit the binding of human HGF to its receptor c-Met was determined in a receptor competition ELISA. c-Met (Fc chimera; RnD systems, USA, 358-MT-100/CF) was pre-coated on a microplate. DARPins and HGF were premixed in PBSTC and incubated at room temperature for 0.5 hours. These preincubation mixtures were then transferred into the with c-Met precoated wells and any HGF that was not blocked by the DARPins was bound by the immobilized receptor. After washing away any unbound substances, an polyclonal antibody specific for HGF (RnD systems, USA, AF-294-NA) was added to the wells. After washing away any unbound substances, an horse radish peroxidase conjugated antibody (Novus Biologicals, USA, NB7357) binding to the polyclonal antibody specific for HGF was added to the wells. Following a wash to remove any unbound antibody-enzyme reagent, a substrate solution (Roche, Switzerland, 11484281001) was added to the wells and color was developing in proportion to the amount of HGF bound. The color development was stopped and the intensity of the color was measured at 405 nm. […] Example titration curves are given for a set of DARPins in FIG. 5. IC₅₀ values were calculated from such titration curves obtained as described above using standard procedures known to the person skilled in the art.

[5] = target: T1, recombinant human HGF (hepatocyte …); assay: cell-based or functional assay; remark: listed apart in the source

B1: DARPin #33 (designed binder)
chain: MRGSHHHHHHGSDLGKKLLEAARAGQDDEVRILMANGADVNAHDYSGFTPLHLAAYYGHLEIVEVLLKHGADVNAFDDWGHTPLHLAARYGHLEIVEVLLKYGADVNAEDTEGYTPLHLAAMDGHLEIVEVLLKNGADVNAQDKFGKTAFDISIDNGNEDLAEILQKLN
- Kd [1]: 0.148 nM
- % inhibition of HGF stimulated c-Met phosphorylation in A549 cells [2]: 100%
- IC50 of HGF stimulated c-Met phosphorylation in A549 cells [2]: 0.2 nM
- IC50 of U87 cell proliferation (BrdU) [3]: 137 nM

B2: DARPin #60 (designed binder)
chain: MRGSHHHHHHGSDLGMKLLEAARAGQDDEVRILMANGADVNAHDTWGLTPLHLAAFHGHQEIVEVLLKHGADVNAQDFYGKTPLHLAALRGHLEIVEVLLKYGADVNAQDQFGKTAFDISIDNGNEDLAEILQKLN
- Kd [1]: 0.026 nM
- % inhibition of HGF stimulated c-Met phosphorylation in A549 cells [2]: 94%
- IC50 of HGF stimulated c-Met phosphorylation in A549 cells [2]: 0.05 nM
- IC50 of U87 cell proliferation (BrdU) [3]: 78 nM
- IC50 [4]: 0.95 nM

B4: DARPin #42 (designed binder)
chain: MRGSHHHHHHGSDLGKKLLEAARAGQDDEVRILMANGADVNAKYEDGLTPLHLAAFYGHLEIVEVLLKHGADVNATDAWGHTPLHLAAHYGHLEIVEVLLKYGADVNAIDTLGYTPLHLAANFGHLEIVEVLLKNGADVNAQDKFGKTAFDISIDNGNEDLAEILQKLN
- Kd [1]: 0.084 nM
- % inhibition of HGF stimulated c-Met phosphorylation in A549 cells [2]: 98%
- IC50 of HGF stimulated c-Met phosphorylation in A549 cells [2]: 0.32 nM
- IC50 of U87 cell proliferation (BrdU) [3]: 82 nM

B5: DARPin #43 (designed binder)
chain: B4 chain with H89Y, A108T, I109H, T111K, L112E, Y114M, P116A, N122L, F123T
- IC50 of U87 cell proliferation (BrdU) [5]: 72 nM
- Kd [1]: 0.025 nM
- % inhibition of HGF stimulated c-Met phosphorylation in A549 cells [2]: 101%
- IC50 of HGF stimulated c-Met phosphorylation in A549 cells [2]: 0.16 nM
- IC50 of U87 cell proliferation (BrdU) [3]: 71 nM
- IC50 [4]: 1.36 nM

B8: DARPin #56 (designed binder)
chain: MRGSHHHHHHGSDLGKKLLEAARAGQDDEVRILMANGADVNANDFLGLTPLHLAASTGHLEIVEVLLKYGADVNAIDAYGHTPLHLAANNGHLEIVEVLLKYGADVNAIDHFGYTPLHLAAMFGHLEIVEVLLKNGADVNAQDKFGKTAFDISIDNGNEDLAEILQKLN
- Kd [1]: 0.736 nM
- % inhibition of HGF stimulated c-Met phosphorylation in A549 cells [2]: 72%
- IC50 of HGF stimulated c-Met phosphorylation in A549 cells [2]: 0.53 nM

B10: DARPin #58 (designed binder)
chain: MRGSHHHHHHGSDLGKKLLEAARAGQDDEVRILMANGADVNAHDYVGLTPLHLAASIGHLEIVEVLLKYGADVNASDYNGFTPLYLAANNGHLEIVEVLLKNGADVNATDSFGYTPLHLAAHYGHLEIVEVLLKNGADVNAQDKFGKTAFDISIDNGNEDLAEILQKLN
- Kd [1]: 0.578 nM
- % inhibition of HGF stimulated c-Met phosphorylation in A549 cells [2]: 89%
- IC50 of HGF stimulated c-Met phosphorylation in A549 cells [2]: 1.63 nM

B11: DARPin #38 (designed binder)
chain: MRGSHHHHHHGSDLGKKLLEAARAGQDDEVRILMANGADVNATDANGFTPLHLAAFYGHLEIVEVLLKYGADVNAYDNFGLTPLHLAASYGHLEIVEVLLKNGADVYAQDKFGKTAFDISIDNGNEDLAEILQKLN
- Kd [1]: 1.6 nM
- % inhibition of HGF stimulated c-Met phosphorylation in A549 cells [2]: 88%
- IC50 of HGF stimulated c-Met phosphorylation in A549 cells [2]: 2.59 nM

The next lines start with the values.

- Kd [1]: 0.016 nM
- % inhibition of HGF stimulated c-Met phosphorylation in A549 cells [2]: 95%
- IC50 of HGF stimulated c-Met phosphorylation in A549 cells [2]: 0.1 nM
- IC50 [4]: 0.91 nM
B3: DARPin #48 (designed binder)
chain: MRGSHHHHHHGSDLGKKLLEAARAGQDDEVRILMANGADVNAKDRFGDTPLHLAADIGHLKIVEVLLKHGADVNAEDWFGNTPLHLAASMGHLEIVEVLLKYGADVNAMDDYGNTPLHLAANTGHLEIVEVLLKHGADVNAQDKFGKTAFDISIDNGNEDLAEILQKLN

- % inhibition of HGF stimulated c-Met phosphorylation in A549 cells [2]: 99%
- IC50 of HGF stimulated c-Met phosphorylation in A549 cells [2]: 0.13 nM
- IC50 of U87 cell proliferation (BrdU) [3]: 113 nM
B6: DARPin #41 (designed binder)
chain: B4 chain with K68R, H89Y, Y90L, I109E, L112E, N122M, F123D, V129I, N135H

- Kd [1]: 0.16 nM
- % inhibition of HGF stimulated c-Met phosphorylation in A549 cells [2]: 82%
- IC50 of HGF stimulated c-Met phosphorylation in A549 cells [2]: 0.39 nM
B7: DARPin #61 (designed binder)
chain: MRGSHHHHHHGSDLGKKLLEAARAGQDDEVRILMANGADVNAEDYLGHTPLHLAASTGHLEIVEVLLKYGADVNAKDRNGLTPLYLAANNGHLEIVEDLLKYGADVNADDDNGTTPLHLAAIFGHLEIVEVLLKYGADVNAQDKFGKTAFDISIDNGNEDLAEILQKLN

- Kd [1]: 0.051 nM
- % inhibition of HGF stimulated c-Met phosphorylation in A549 cells [2]: 81%
- IC50 of HGF stimulated c-Met phosphorylation in A549 cells [2]: 0.01 nM
- IC50 of U87 cell proliferation (BrdU) [3]: 116 nM
- IC50 [4]: 0.62 nM
B9: DARPin #51 (designed binder)
chain: MRGSHHHHHHGSDLGKKLLEAARAGQDDEVRILLKAGADVNAKDRYGDTPLHLAADIGHLEIVEVLLKAGADVNAEDYFGNTPLHLAASYGHLEIVEVLLKAGADVNAKDDYGNTPLHLAANTGHLEIVEVLLKAGADVNAQDKSGKTPADLAADAGHEDIAEVLQKLN

- Kd [1]: 0.011 nM
- % inhibition of HGF stimulated c-Met phosphorylation in A549 cells [2]: 95%
- IC50 of HGF stimulated c-Met phosphorylation in A549 cells [2]: 0.07 nM
- IC50 of U87 cell proliferation (BrdU) [3]: 400 nM
- IC50 [4]: 1.33 nM
B12: DARPin #37 (designed binder)
chain: MRGSHHHHHHGSDLGKKLLEAARAGQDDEVRILMANGADVNATDLTGFTPLHLAAYYGHLEIVEVLLKYGADVNADDRYGLTPLHLAANTGHLEIVEVLLKNGADVNASDSVGTTLLHLAAYIGHPEIVEVLLKYGADVNAQDKFGKTAFDISIDNGNEDLAEILQKLN

- Kd [1]: 0.528 nM
- % inhibition of HGF stimulated c-Met phosphorylation in A549 cells [2]: 100%
- IC50 of HGF stimulated c-Met phosphorylation in A549 cells [2]: 0.85 nM
- IC50 of U87 cell proliferation (BrdU) [3]: 3280 nM
B13: DARPin #59 (designed binder)
chain: MRGSHHHHHHGSDLGKKLLEAARAGQDDEVRILMANGADVNADDSLGLTPLHLAAASGHLEIVEVLLKNGADVNAVDQNSFTPLYLAANNGHLEIVEVLLKNGADVNAFDWHGTTPLHLAAMFGHLEIVEVLLKNGADVNAQDKFGKTAFDISIDNGNEDLAEILQKLN

- Kd [1]: 16.6 nM
- % inhibition of HGF stimulated c-Met phosphorylation in A549 cells [2]: 100%
- IC50 of HGF stimulated c-Met phosphorylation in A549 cells [2]: 1.72 nM
- IC50 of U87 cell proliferation (BrdU) [3]: 730 nM
- IC50 [4]: 1.71 nM
B14: DARPin #57 (designed binder)
chain: MRGSHHHHHHGSDLGKKLLEAARAGQDDEVRILMANGADVNAHDYLGLTPLHLAASDGHLEIVEVLLKHGADVNAYDYNGLTPLHLAANNGHLEIVEVLLKYGADVNAFDVAGYTPLHLAAYFGHLEIVEVLLKYGADVNAQDKFGKTAFDISIDNGNEDLAEILQKLN
